One assay addresses T1, FP15 A517E (HIV-1 Env fusion peptide 512-526, most …, A517E).
T1 construct: also called FP15 with Glu at residue 517; source: peptide microarray (PEPperPRINT)
T1 chain: AVGIGEVFLGFLGAA
Nature of the assay: peptide or protein array. The settings on record: both partners purified.

Assay [1] has as its target T2, HIV-1 fusion peptide FP15 (Env residues 512-526, most common sequence) (HIV-1 Env fusion peptide 512-526, most …).
T2 construct: source: peptide microarray (PEPperPRINT)
T2 chain: AVGIGAVFLGFLGAA
As to the kind of experiment: peptide or protein array. The settings on record: both partners purified.

A further assay has as its target T3, FP15 F519E (HIV-1).
T3 sequence (peptide): AVGIGAVELGFLGAA
Nature of the assay: peptide or protein array.

A further assay concerns the target T4, FP15 F519D (HIV-1).
T4 sequence (peptide): AVGIGAVDLGFLGAA
As to the kind of experiment: peptide or protein array.

The target in another assay is T5, FP15 V518E (HIV-1).
T5 sequence (peptide): AVGIGAEFLGFLGAA
Nature of the assay: peptide or protein array.

A further assay deals with T6, FP15 A517D (HIV-1).
T6 sequence (peptide): AVGIGDVFLGFLGAA
As to the kind of experiment: peptide or protein array.

For a further assay, the target named is T7, FP15 V518D (HIV-1).
T7 sequence (peptide): AVGIGADFLGFLGAA
As to the kind of experiment: peptide or protein array.

The target in assay [2] is T8, BG505_RnS soluble HIV-1 Env trimer (WT FP sequence) (HIV-1 BG505, UniProt Q2N0S6, stabilised).
T8 construct: also called BG505 trimer; not shown: single-chain Fc, N-terminal, cleaved; copies: 3 + 3
Nature of the assay: BLI; ForteBio Octet HTX; IgG loaded on anti-human Fc (AHC) tips at 20 ug/ml for 3 min; Env trimers at 50 ug/ml for 5 min, dissociation in PBS 5 min; corrected response values, triplicates. The note with it: both partners purified. A general note: In BLI a coated tip is dipped into the sample, and binding shifts an interference pattern.

Assay [3] concerns the target T8, BG505_RnS soluble HIV-1 Env trimer (WT …). Nature of the assay: BLI. The note with it: both partners purified.

B1: ACS202 IgG (antibody, V domains shown)
VH: QVQLVESGGGVVQPGGSLRLSCAASGFAFKDFGMHWVRQAPGKGLEWVAVIGGGHGQHQSYSESVKGRFAITRDNEKNKLYLHMDRLRTEDTAVYYCAKDRLGRPWNIGGRLVYYYYGMDVWGQGTTVTVSS
VL: AIRMTQSPSSLSASVGDRVTITCQASQDIKKSLNWYRQKPGKAPELLIHDASILQTGVPSAFTASGSGTHFSFVINKLQPEDVGTYFCQEYENLQFTFGPGTKVEIK
notes: source: Expi293, transfected, purified (protein A)
For B1, the “fold increase of binding intensity over WT” value in the assay with FP15 A517E, with FP15 F519E (HIV-1), with FP15 F519D (HIV-1), in the assay with FP15 V518E (HIV-1), with FP15 A517D (HIV-1) and with FP15 V518D (HIV-1) was 10 fold in each case. The binding result in assay [1] and in assay [2] was “binds” in each case.

B2: N123-VRC34.01 IgG (antibody, V domains shown)
VH: QEVLVQSGAEVKKPGASVKVSCRAFGYTFTGNALHWVRQAPGQGLEWLGWINPHSGDTTTSQKFQGRVYMTRDKSINTAFLDVTRLTSDDTGIYYCARDKYYGNEAVGMDVWGQGTSVTVSS
VL: IQLTQSPSFLSASVGDKVTITCRASQGVRNELAWYQQKPGKAPNLLIYYASTLQSGVPSRFSATGSGTHFTLTVSSLQPEDFATYFCQHMSSYPLTFGGGTKVEIK
notes: as for B1
For B2, in assay [3], the binding result was “binds”.

B3: 0PV-c.01 IgG (antibody, V domains shown)
VH: QVQLVESGPGVVKPSETLSLTCVVSGGTPGRGFLYWSWVRQPPGKGLEWIGGTATNTDITDYNPSLKSRAAISKDTSRNQFLLNLKPLTAGDTAVYYCTSRAKDYRGPSYSRIDVWGPGVLVTVSS
VL: DIVMTQTPLSLPVTPGEPASISCRSSQSLLDSDGNTCLDWFLQKPGQSPQLLIYDVSNRVSGVPDRFSGSGSDTDFTLKISRVEAEDVGVYYCMQFVEFPLTFGGGTKVEIR
notes: as for B1
As to B3, the binding result in assay [1] is “binds”.

The values above are taken from PMC11602501 (Frontiers in Immunology, 2024).
